According to publication PMC8650758 (Cell reports, 2021):
Numbering of substitutions follows the chain as printed. Numbers in names are those of the source. Each block holds one binder with its values, some of them ahead of it.

How the values were obtained:
DWnt-5(455-1004) [1] = biological target: T1, DWnt-5(455-1004) (D. melanogaster, UniProt P28466 455-1004, glycosylated at N484/485, N724 and N952; S868 unmodified (not lipid modified)); assay: SPR
T1 sequence (looked up): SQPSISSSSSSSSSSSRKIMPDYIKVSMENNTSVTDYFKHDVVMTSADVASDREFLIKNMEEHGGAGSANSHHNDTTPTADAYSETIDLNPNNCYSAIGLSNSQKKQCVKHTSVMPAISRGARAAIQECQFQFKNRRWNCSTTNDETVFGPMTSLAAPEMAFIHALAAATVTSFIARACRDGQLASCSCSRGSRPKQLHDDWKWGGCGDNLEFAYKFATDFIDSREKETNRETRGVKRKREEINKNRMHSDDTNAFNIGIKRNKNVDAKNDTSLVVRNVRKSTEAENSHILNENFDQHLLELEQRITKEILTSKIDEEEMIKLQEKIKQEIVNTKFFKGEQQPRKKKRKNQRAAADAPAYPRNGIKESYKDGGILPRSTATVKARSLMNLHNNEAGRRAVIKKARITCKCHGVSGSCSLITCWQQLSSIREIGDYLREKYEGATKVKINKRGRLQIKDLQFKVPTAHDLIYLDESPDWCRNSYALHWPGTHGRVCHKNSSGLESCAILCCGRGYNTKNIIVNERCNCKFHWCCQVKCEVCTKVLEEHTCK

DWnt-5(455-1004) [2] = biological target: T1, DWnt-5(455-1004); assay: pull-down

B4: sDrl242 I154E (domain or fragment, D. melanogaster, UniProt Q27324 21-242, looked up)
chain: HLNIFLNLHEVLRLIGVSAELYYVREGAINDYALNFAVPVPANISDVTFTWQSLVDHPLPYSINIATSDTEVLPRPILNISRIGDVPVEPQTWGIALKCSGTRNAEVTVTINVEVILDRATNNNTNLIFKRKKECLREEQDSAHEEYDDDDLDLLQTARKGHGGDIHYVDRNDEHVVANGHQAPEKQRPVVTESPVGRGNSGGSKRDFDPMLRENLVPPASG
binding result (DWnt-5(455-1004) [1]): binds

B5: sDrl242 E126K (domain or fragment, D. melanogaster, UniProt Q27324 21-242, looked up)
chain: B4 chain with E106K, E134I
binding result (DWnt-5(455-1004) [1]): binds

B6: sDrl183 (Drl WIF domain) (domain or fragment, D. melanogaster, UniProt Q27324 21-183, looked up)
chain: HLNIFLNLHEVLRLIGVSAELYYVREGAINDYALNFAVPVPANISDVTFTWQSLVDHPLPYSINIATSDTEVLPRPILNISRIGDVPVEPQTWGIALKCSGTRNAEVTVTINVEVILDRATNNNTNLIFKRKKICLREEQDSAHEEYDDDDLDLLQTARKGHG
binding result (DWnt-5(455-1004) [2]): binds

The remaining lines, values ahead:

Kd (DWnt-5(455-1004) [1]): 230 nM
B1: sDrl-2 (Drl-2 ECR) (domain or fragment, D. melanogaster)
chain: GYLNIFISHHEVMKLMGLEADLFYVHEGAINTYAMHFTVPVPADVHELEFSWQSLIAYPLPYAISIEYNNDQEALGTPTLSIPHKGLVPQEIESFLVYLPCTGNASLQMPVNVNMVVRAPPRFNDTRLHFKRNKICAKGISPEPNQSPAPAHAPSQGPARPLESRGPFEGKPIPNPLLGLDSTRTG

fold reduction of affinity against wild-type sDrl242 (DWnt-5(455-1004) [1]): ~10 fold
B2: sDrl242 E40K (domain or fragment, D. melanogaster, UniProt Q27324 21-242, looked up)
chain: B4 chain with E20K, E134I

Kd (DWnt-5(455-1004) [1]): 720 nM
B3: sDrl242 (Drl ECR) (domain or fragment, D. melanogaster, UniProt Q27324 21-242, looked up)
chain: B4 chain with E134I

fold weaker binding than the Drl and Drl-2 ECRs (DWnt-5(455-1004) [1]): ~10 fold
B7: sDnt (Dnt ECR) (domain or fragment, D. melanogaster)
chain: SEVAAHLNVFLNPVEVMRLLGVSAEVYYVREGHINNYALNFIVPVPANVKDISFTWQSLAGRGLPYSINVVSSDQEVLPRPAINVSHSGEIPTTIQTWSIALKCSGLKAAEVDVTVSLEVVLNRSLNNVTHLVFRRKKICLMNDSAEDLSEDVDDPQLLETVMLPPTGRPLESRGPFEGKPIPNPLLGLDSTRTG
